In patent US20230293738A1 (Y MABS THERAPEUTICS, published 2023):
Residue numbers refer to the chain shown, from its start. Like-named read-outs stand apart in the source and are kept apart here.

T1: human 2Ig-B7H3 (B7H3-2Ig-His) (human, UniProt Q5ZPR3 29-466)
T1 construct: Recombinant His-tagged protein immobilised on a CM5 chip; also called 21g-B7H3; B7H3-21g-His; not shown: His tag
T1 sequence: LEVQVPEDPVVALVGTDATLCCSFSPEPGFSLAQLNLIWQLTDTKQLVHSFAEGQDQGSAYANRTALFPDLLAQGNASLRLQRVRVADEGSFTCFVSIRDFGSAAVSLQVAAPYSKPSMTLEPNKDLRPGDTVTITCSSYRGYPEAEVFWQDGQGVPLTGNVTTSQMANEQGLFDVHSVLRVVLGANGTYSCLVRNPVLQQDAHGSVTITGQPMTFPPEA

T2: human 4Ig-B7H3 (B7H3-4Ig-His) (human, UniProt Q5ZPR3 29-466)
T2 construct: Recombinant His-tagged protein immobilised on a CM5 chip; also called 41g-B7H3; human 4Ig-B7-H3 (dominant isoform); not shown: His tag
T2 sequence: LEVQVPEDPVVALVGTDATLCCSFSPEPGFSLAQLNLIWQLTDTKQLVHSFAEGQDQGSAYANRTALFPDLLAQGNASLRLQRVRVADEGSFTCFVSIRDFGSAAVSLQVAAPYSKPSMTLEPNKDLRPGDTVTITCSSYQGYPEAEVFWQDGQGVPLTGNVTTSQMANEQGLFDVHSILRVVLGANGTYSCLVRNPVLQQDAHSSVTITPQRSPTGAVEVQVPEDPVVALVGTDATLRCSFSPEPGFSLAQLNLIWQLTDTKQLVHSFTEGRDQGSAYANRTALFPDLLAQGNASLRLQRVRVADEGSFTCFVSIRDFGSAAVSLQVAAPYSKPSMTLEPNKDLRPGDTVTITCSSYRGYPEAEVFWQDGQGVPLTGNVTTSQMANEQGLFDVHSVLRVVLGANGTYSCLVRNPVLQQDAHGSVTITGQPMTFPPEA

B1: 8H9 antibody conjugated with p-SCN-Bn-DOTA, CAR 0.8 (antibody, mouse IgG1, kappa, V domains shown)
VH: QVQLQQSGAELVKPGASVKLSCKASGYTFTNYDINWVRQRPEQGLEWIGWIFPGDGSTQYNEKFKGKATLTTDTSSSTAYMQLSRLTSEDSAVYFCARQTTATWFAYWGQGTLVTVSA
VL: DIVMTQSPATLSVTPGDRVSLSCRASQSISDYLHWYQQKSHESPRLLIKYASQSISGIPSRFSGSGSGSDFTLSINSVEPEDVGVYYCQNGHSFPLTFGAGTKLELKR
modifications: p-SCN-Bn-DOTA conjugated, CAR 0.8 per antibody; sites not stated
notes: Chelator conjugate, not metal-labelled
B2: 8H9 antibody conjugated with p-SCN-Bn-DOTA, CAR 2.4 (antibody, mouse IgG1, kappa, V domains shown)
VH: B1 VH
VL: B1 VL
modifications: p-SCN-Bn-DOTA conjugated, CAR 2.4 per antibody; sites not stated
notes: as for B1
B3: 8H9 antibody conjugated with p-SCN-Bn-CHX-A″-DTPA, CAR 0.6 (antibody, mouse IgG1, kappa, V domains shown)
VH: B1 VH
VL: B1 VL
modifications: p-SCN-Bn-CHX-A″-DTPA conjugated, CAR 0.6 per antibody; sites not stated
notes: Chelator conjugate, not metal-labelled; also called conj-CHX-A″-DTPA (CAR0.6)
B4: 175Lu-DTPA-8H9-antibody (CAR1.4) (antibody, mouse IgG1, kappa, V domains shown)
VH: B1 VH
VL: B1 VL
modifications: p-SCN-Bn-CHX-A″-DTPA conjugated (CAR 1.4 per antibody), labelled with cold lutetium-175; sites not stated
B5: 175Lu-DTPA-8H9-antibody (CAR3) (antibody, mouse IgG1, kappa, V domains shown)
VH: B1 VH
VL: B1 VL
modifications: p-SCN-Bn-CHX-A″-DTPA conjugated (CAR 3 per antibody), labelled with cold lutetium-175; sites not stated
B6: 175Lu-DTPA-8H9-antibody (CAR6.1) (antibody, mouse IgG1, kappa, V domains shown)
VH: B1 VH
VL: B1 VL
modifications: p-SCN-Bn-CHX-A″-DTPA conjugated (CAR 6.1 per antibody), labelled with cold lutetium-175; sites not stated
B7: 175Lu-DOTA-8H9-antibody (CAR2.6) (antibody, mouse IgG1, kappa, V domains shown)
VH: B1 VH
VL: B1 VL
modifications: p-SCN-Bn-DOTA conjugated (CAR 2.6 per antibody), labelled with cold lutetium-175; sites not stated
B8: 175Lu-DOTA-8H9-antibody (CAR6.3) (antibody, mouse IgG1, kappa, V domains shown)
VH: B1 VH
VL: B1 VL
modifications: p-SCN-Bn-DOTA conjugated (CAR 6.3 per antibody), labelled with cold lutetium-175; sites not stated
B9: hu8H9-3.1 (antibody, V domains shown)
VH: QVQLVQSGAEVVKPGASVKLSCKTSGYTFTNYDINWVRQRPGQGLEWIGWIFPGDDSTQYNEKFKGKATLTTDTSTSTAYMELSSLRSEDTAVYFCARQTTGTWFAYWGQGTLVTVSS
VL: B1 VL with D1E, T14S, D17E, S20T, H34Y, S60A, D70E, S74T, A100Q
B10: 8H9 antibody conjugated with p-SCN-Bn-CHX-A″-DTPA, CAR 1.4 (antibody, mouse IgG1, kappa, V domains shown)
VH: B1 VH
VL: B1 VL
modifications: p-SCN-Bn-CHX-A″-DTPA conjugated, CAR 1.4 per antibody; sites not stated
notes: as for B1
B11: 8H9 antibody conjugated with p-SCN-Bn-CHX-A″-DTPA, CAR 3.6 (antibody, mouse IgG1, kappa, V domains shown)
VH: B1 VH
VL: B1 VL
modifications: p-SCN-Bn-CHX-A″-DTPA conjugated, CAR 3.6 per antibody; sites not stated
notes: as for B1
B12: 8H9 antibody conjugated with p-SCN-Bn-DOTA, CAR 2.6 (antibody, mouse IgG1, kappa, V domains shown)
VH: B1 VH
VL: B1 VL
modifications: p-SCN-Bn-DOTA conjugated, CAR 2.6 per antibody; sites not stated
notes: as for B1
B13: 8H9 antibody conjugated with p-SCN-Bn-DOTA, CAR 7.5 (antibody, mouse IgG1, kappa, V domains shown)
VH: B1 VH
VL: B1 VL
modifications: p-SCN-Bn-DOTA conjugated, CAR 7.5 per antibody; sites not stated
notes: as for B1

Assays:
[1] = target: T1, human 2Ig-B7H3 (B7H3-2Ig-His); assay: SPR, Biacore T200, 2Ig-B7H3-His on CM5 chip, 1:1 fit
[2] = target: T2, human 4Ig-B7H3 (B7H3-4Ig-His); assay: SPR, Biacore T200, 4Ig-B7H3-His on CM5 chip, 1:1 fit
[3] = target: T1, human 2Ig-B7H3 (B7H3-2Ig-His); assay: SPR, Biacore T200, 2Ig-B7H3-His on CM5 chip, 1:1 fit; * beyond fitting limits
[4] = target: T1, human 2Ig-B7H3 (B7H3-2Ig-His); assay: SPR, Biacore T200, 2Ig-B7H3-His on CM5 chip, 1:1 fit; remark: listed apart in the source
Procedure: (§1) Both human B7H3 41g and 21g proteins were dissolved in PBS (Phosphate-Buffered Saline) to make 0.1 mg/ml stock solution and stored in −80° C. B7-H3 proteins were immobilized onto the CM5 sensor chip using Amine Coupling Kit. Both proteins were diluted to 10 ug/ml with 10 mM Sodium acetate, pH 5.0. […] A blank immobilized surface was used as a control
(§2) Binding Assays: [0143] 1. Antibodies were diluted in HBS-EP buffer (10 mM HEPES, 150 mM NaCl, 3 mM EDTA, 0.05% Surfactant P20, pH 7.4) at varying concentrations (25-50-100-200-400 nM) prior to analysis. […] 2. Samples (60 ul) were injected over the sensor surface at a flow rate of 30 ul/min over 2 min. [0145] 3. Following completion of the association phase, dissociation was monitored in HBS-EP buffer for 10 min at the same flow rate. […] 4. At the end of each cycle, the surface was regenerated using 10 mM NaOH at a flow rate of 50 ul/min over 2×15 sec.
(§3) The data were analyzed by the 1:1 fitting model and default parameter setting for the rate constants using the Biacore T200 Evaluation Software, and the apparent association on rate constant (kon, ka), dissociation off rate constant (koff, kd) and equilibrium dissociation constant (KD=kd/ka) were calculated.

[5] = target: T2, human 4Ig-B7H3 (B7H3-4Ig-His); assay: SPR, Biacore T200, 4Ig-B7H3-His on CM5 chip, 1:1 fit; remark: listed apart in the source
Procedure: as §1, §2

[6] = target: T2, human 4Ig-B7H3 (B7H3-4Ig-His); assay: SPR
Procedure: as §1, §2

[7] = target: T1, human 2Ig-B7H3 (B7H3-2Ig-His); assay: SPR
Procedure: as §1, §2

[8] = target: T1, human 2Ig-B7H3 (B7H3-2Ig-His); assay: SPR; CHX-A''-DTPA conjugate, CAR 0.6, unlabeled
[9] = target: T2, human 4Ig-B7H3 (B7H3-4Ig-His); assay: SPR; remark: listed apart in the source
Procedure: as §1, §3

[10] = target: T1, human 2Ig-B7H3 (B7H3-2Ig-His); assay: SPR; remark: listed apart in the source
Procedure: as §1, §3

[11] = target: T1, human 2Ig-B7H3 (B7H3-2Ig-His); assay: SPR, Biacore T200, 2Ig-B7H3-His on CM5 chip, 1:1 fit; remark: listed apart in the source
Procedure: as §1, §3

[12] = target: T2, human 4Ig-B7H3 (B7H3-4Ig-His); assay: SPR, Biacore T200, 4Ig-B7H3-His on CM5 chip, 1:1 fit; remark: listed apart in the source
Procedure: as §1, §3

[13] = target: T1, human 2Ig-B7H3 (B7H3-2Ig-His); assay: SPR; CHX-A''-DTPA conjugate, CAR 1.4, labeled with cold 175Lu
Procedure: as §1, §2

[14] = target: T1, human 2Ig-B7H3 (B7H3-2Ig-His); assay: SPR; CHX-A''-DTPA conjugate, CAR 3, labeled with cold 175Lu
Procedure: as §1, §2

[15] = target: T1, human 2Ig-B7H3 (B7H3-2Ig-His); assay: SPR, Biacore T200, 2Ig-B7H3-His on CM5 chip, 1:1 fit; CHX-A''-DTPA conjugate, CAR 6.1, labeled with cold 175Lu
Procedure: as §1, §2

[16] = target: T1, human 2Ig-B7H3 (B7H3-2Ig-His); assay: SPR, Biacore T200, 2Ig-B7H3-His on CM5 chip, 1:1 fit; DOTA conjugate, CAR 6.3, labeled with cold 175Lu
Procedure: as §1, §2

[17] = target: T1, human 2Ig-B7H3 (B7H3-2Ig-His); assay: SPR; CHX-A''-DTPA conjugate, CAR 1.4, unlabeled
[18] = target: T1, human 2Ig-B7H3 (B7H3-2Ig-His); assay: SPR, Biacore T200, 2Ig-B7H3-His on CM5 chip, 1:1 fit; CHX-A''-DTPA conjugate, CAR 3.6, unlabeled

Molecule	Kd [4]	T ½ [4]	Kd [5]	t ½ [5]	t ½ [11]	Kd [12]	t ½ [12]	further results
127I-Humanized-8H9-antibody	–	–	–	–	–	–	–	Kd [1]: 0.00212 nM; kon [1]: 361000 M⁻¹ s⁻¹; t ½ [1]: 251 h; Kd [2]: 0.24 nM; koff [2]: 2.68e-05 s⁻¹; kon [2]: 112000 M⁻¹ s⁻¹; t ½ [2]: 7.17 h; koff [3]: 7.66e-07 s⁻¹
B1	0.166 nM	39.2 h	5.76 nM	1.67 h	–	–	–	–
B2	0.222 nM	41.1 h	8.61 nM	1.4 h	–	–	–	–
B3	1.22 nM	5.72 h	10.1 nM	0.883 h	–	–	–	Kd [6]: 10.1 nM; t ½ [6]: 0.883 h; t ½ [7]: 5.72 h; Kd [8]: 1.22 nM
B4	–	–	–	–	28.1 h	7.64 nM	1.26 h	Kd [9]: 7.64 nM; t ½ [9]: 1.26 h; t ½ [10]: 28.1 h; Kd [11]: 0.217 nM; Kd [13]: < 0.316 nM
B5	–	–	–	–	5.94 h	16.2 nM	0.811 h	Kd [9]: 16.2 nM; t ½ [9]: 0.811 h; t ½ [10]: 5.94 h; Kd [11]: 1.8 nM; Kd [14]: 1.8 nM
B6	–	–	–	–	1.82 h	34 nM	0.4 h	Kd [9]: 34 nM; t ½ [9]: 0.4 h; t ½ [10]: 1.82 h; Kd [15]: 7.21 nM
B7	–	–	–	–	6.11 h	15.7 nM	0.822 h	Kd [11]: 1.74 nM
B8	–	–	–	–	5.39 h	19.5 nM	0.742 h	Kd [16]: 2.34 nM
B9	–	–	–	–	1.89 h	8.87 nM	0.769 h	Kd [11]: 2.22 nM; koff [11]: 0.000102 s⁻¹; kon [11]: 45900 M⁻¹ s⁻¹; koff [12]: 0.000251 s⁻¹; kon [12]: 28300 M⁻¹ s⁻¹
B10	1.93 nM	3.94 h	10 nM	1.09 h	–	–	–	Kd [6]: 10 nM; t ½ [6]: 1.09 h; t ½ [7]: 3.94 h; Kd [17]: 1.93 nM
B11	–	1.25 h	26.9 nM	0.508 h	–	–	–	Kd [6]: 26.9 nM; t ½ [6]: 0.508 h; t ½ [7]: 1.25 h; Kd [18]: 9.46 nM
B12	0.58 nM	14 h	7.57 nM	1.42 h	–	–	–	–
B13	1.71 nM	6.58 h	14.6 nM	1.03 h	–	–	–	–
